Data as given in publication PMC7081427.

How the values were obtained:
Assay in all cases: EMSA
nucleolin RRM [1] = target: T1, nucleolin RRM (UniProt P19338 267-645)
RRM-RGG F/A3 = RRM-RGG F/A3 (UniProt P19338 267-709, F663A;F676A;F684A)
RRM-RGG F/A1 = RRM-RGG F/A1 (UniProt P19338 267-709, F663A)
RRM-RGG F/A2 = RRM-RGG F/A2 (UniProt P19338 267-709, F663A;F676A)
nucleolin RRM [2] = target: T1, nucleolin RRM; remark: listed apart in the source
nucleolin RRM-RGG = nucleolin RRM-RGG (UniProt P19338 267-709)
Sequence of nucleolin RRM-RGG (P19338 267-709): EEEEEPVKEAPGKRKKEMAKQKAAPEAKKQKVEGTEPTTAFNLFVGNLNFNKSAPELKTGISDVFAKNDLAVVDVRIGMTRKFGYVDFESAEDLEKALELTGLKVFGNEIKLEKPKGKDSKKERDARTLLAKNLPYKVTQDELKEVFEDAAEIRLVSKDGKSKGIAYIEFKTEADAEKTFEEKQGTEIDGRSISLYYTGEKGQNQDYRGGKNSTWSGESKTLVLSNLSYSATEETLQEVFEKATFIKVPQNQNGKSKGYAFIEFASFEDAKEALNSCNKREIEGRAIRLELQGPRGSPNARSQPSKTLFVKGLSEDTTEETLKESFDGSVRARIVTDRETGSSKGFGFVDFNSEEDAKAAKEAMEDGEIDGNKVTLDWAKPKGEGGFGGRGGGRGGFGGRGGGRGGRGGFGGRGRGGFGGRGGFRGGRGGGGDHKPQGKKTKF

T1 sequence (P19338 267-645): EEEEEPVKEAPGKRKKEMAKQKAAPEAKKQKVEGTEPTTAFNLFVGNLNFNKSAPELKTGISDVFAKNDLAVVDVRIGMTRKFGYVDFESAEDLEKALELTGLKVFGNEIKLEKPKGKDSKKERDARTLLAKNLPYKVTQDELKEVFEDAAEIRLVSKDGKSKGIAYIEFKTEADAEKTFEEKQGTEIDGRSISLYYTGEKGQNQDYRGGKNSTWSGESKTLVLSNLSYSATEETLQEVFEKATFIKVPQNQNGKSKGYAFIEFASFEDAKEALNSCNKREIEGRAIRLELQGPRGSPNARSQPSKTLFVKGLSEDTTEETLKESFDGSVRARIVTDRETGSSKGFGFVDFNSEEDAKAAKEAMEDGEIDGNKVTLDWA
Sequence of RRM-RGG F/A3 (P19338 267-709 F663A/F676A/F684A): as the sequence (P19338 267-709) above, with F397A, F410A, F418A counted along it
Sequence of RRM-RGG F/A1 (P19338 267-709 F663A): as the sequence (P19338 267-709) above, with F397A counted along it
Sequence of RRM-RGG F/A2 (P19338 267-709 F663A/F676A): as the sequence (P19338 267-709) above, with F397A, F410A counted along it

## GGGGGGGGGG (ssDNA) [dG10]
Nucleolin RRM [1]
  binding result: binds

## GGGCGCGGGAGGAATTGGGCGGG (structured_DNA) [BCL-2]
RRM-RGG F/A3
  Kd: 172 ± 9.1 nM
RRM-RGG F/A1
  Kd: 75.5 ± 9.5 nM
RRM-RGG F/A2
  Kd: 71.8 ± 6.9 nM
Nucleolin RRM [2]
  Kd: 73.6 ± 7.1 nM
Nucleolin RRM-RGG
  Kd: 79.6 ± 4 nM
